Patent US20190062453A1 (Hoffmann-La Roche, published 2019)

Target: T1, Human FAP ectodomain + poly-lys-tag + his6-tag (human, UniProt Q12884 27-760)
T1 construct: also called recombinant soluble human FAP; hFAP
Test: Affinity human, method not stated

Kd: 2.6 nM
B1: 28H1 (antibody, V domains shown)
VH: EVQLLESGGGLVQPGGSLRLSCAASGFTFSSHAMSWVRQAPGKGLEWVSAIWASGEQYYADSVKGRFTISRDNSKNTLYLQMNSLRAEDTAVYYCAKGWLGNFDYWGQGTLVTVSS
VL: EIVLTQSPGTLSLSPGERATLSCRASQSVSRSYLAWYQQKPGQAPRLLIIGASTRATGIPDRFSGSGSGTDFTLTISRLEPEDFAVYYCQQGQVIPPTFGQGTKVEIK
notes: also called FAP(28H1); 28H1 (IgG)
